Test results published in patent US20220144960A1 (NANJING LEGEND BIOTECH, published 2022).
Changes are numbered by the printed parent chain. Each block holds one binder with its values, some of them ahead of it.

How the values were obtained:
rhesus CD30 ECD = target: T1, rhesus CD30 ECD (rhesus, UniProt P28908 19-379 (human entry)); assay: ELISA on rhesus CD30 ECD protein; member of the group by paragraph 437
T1 construct: Produced in house; also called recombinant rhesus CD30; rhesus CD30 protein
T1 chain: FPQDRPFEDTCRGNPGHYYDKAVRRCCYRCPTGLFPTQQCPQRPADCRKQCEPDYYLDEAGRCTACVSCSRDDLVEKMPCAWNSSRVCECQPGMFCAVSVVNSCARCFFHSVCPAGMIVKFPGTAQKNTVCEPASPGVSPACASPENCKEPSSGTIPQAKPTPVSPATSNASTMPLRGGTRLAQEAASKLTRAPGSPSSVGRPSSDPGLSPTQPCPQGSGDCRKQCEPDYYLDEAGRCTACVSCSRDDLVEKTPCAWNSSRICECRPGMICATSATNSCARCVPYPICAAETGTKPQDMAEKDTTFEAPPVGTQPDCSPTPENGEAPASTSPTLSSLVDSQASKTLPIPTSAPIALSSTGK

[1] = target: T2, recombinant human CD30 extra cellular domain (ECD) protein (human, UniProt P28908 19-379); assay: SPR Biacore T200, His-tagged sdAb/Fab captured, 100.0 nM human CD30 as analyte, single curve
T2 construct: Bought from R&D systems; also called rhCD30; human CD30 ECD
T2 sequence: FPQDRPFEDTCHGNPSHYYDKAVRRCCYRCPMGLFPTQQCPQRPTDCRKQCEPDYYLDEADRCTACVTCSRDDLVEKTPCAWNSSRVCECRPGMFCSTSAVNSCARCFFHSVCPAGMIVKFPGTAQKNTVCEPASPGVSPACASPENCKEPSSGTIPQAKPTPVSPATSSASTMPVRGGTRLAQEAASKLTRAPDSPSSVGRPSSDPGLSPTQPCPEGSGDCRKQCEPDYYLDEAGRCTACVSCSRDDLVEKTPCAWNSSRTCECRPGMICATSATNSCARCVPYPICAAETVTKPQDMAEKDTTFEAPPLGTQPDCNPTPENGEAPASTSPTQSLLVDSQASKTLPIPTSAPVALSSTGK
Description: Some of these unique binders were subjected to for further characterization by surface plasmon resonance (SPR) on a BIAcore T200 instrument (GE Healthcare). The experiment was carried out as follows. The crude sdAb/Fab proteins were captured through an affinity tag (6×Histidine tag) onto the sensorchip. High-concentration (100.0 nM) of human CD30 (R&D systems, Cat. #6126-CD) flowed over the sensorchip surface, and were allowed to bind the antibody fragments for 300 s followed by injection of the running buffer to allow dissociation of the complex. On-rate ([…] and off-rate (kd) were roughly calculated based on one association and dissociation curve, and were used to estimate the equilibrium dissociation constant (KD). 5F11 scFv (SEQ ID NO:216, prepared according to WO2017066122) was used as a positive control. Data were summarized in Table 3 below. The first 10 antibodies in Table 3 were sdAbs with amino acid sequence ID numbers summarized in Table 1, the last antibody was 5F11 scFv, and the remainings were human Fabs with CDR and scFv amino acid sequence ID numbers in Table 2.

[2] = target: T3, human CD30 CRD6 (E282-K379) Fc fusion protein with human IgG1 Fc fragment at the C terminus (human); assay: ELISA on the CD30 fragment CRD6, absorbance OD 450 nm; sdAb concentration not given
T3 construct: also called CRD6 construct
T3 sequence (chain, as listed by the source limits assumed): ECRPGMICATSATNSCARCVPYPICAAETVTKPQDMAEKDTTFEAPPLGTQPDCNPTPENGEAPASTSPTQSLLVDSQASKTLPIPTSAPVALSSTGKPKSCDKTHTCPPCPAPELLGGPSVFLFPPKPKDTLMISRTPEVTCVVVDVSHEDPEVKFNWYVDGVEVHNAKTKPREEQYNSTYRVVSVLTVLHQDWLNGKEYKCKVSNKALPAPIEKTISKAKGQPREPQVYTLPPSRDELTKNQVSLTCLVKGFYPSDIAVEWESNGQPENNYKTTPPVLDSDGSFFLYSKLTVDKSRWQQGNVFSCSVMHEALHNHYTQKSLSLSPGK

- binding result (rhesus CD30 ECD): binds
- Kd [1]: 29 nM
- koff [1]: 0.0042 s⁻¹
- kon [1]: 140000 M⁻¹ s⁻¹
- rhCD30 Binding (RU) [1]: 119 RU
- binding result [2]: binds
B1: AS47863 sdAb (VHH)
VHH: QVQLEESGGGSVQAGETLRLSCTASGSTFGDSDMGWYRQAPGNACELVSIISSDGRTYYVDSVKGRFTISQDNAVSTVYLQMNSLKPEDTGVYYCAADLRQYCRDGRCCGYWGQGTQVTVSS
notes: Camel sdAb

- binding result (rhesus CD30 ECD): binds
- Kd [1]: 25 nM
- koff [1]: 0.0023 s⁻¹
- kon [1]: 93000 M⁻¹ s⁻¹
- rhCD30 Binding (RU) [1]: 83.5 RU
- binding result [2]: binds
B2: AS48433 sdAb (VHH)
VHH: B1 VHH with V2I, E5V, K86N, Q101L, Y102N
notes: Camel sdAb

- binding result (rhesus CD30 ECD): binds
- Kd [1]: 19 nM
- koff [1]: 0.0024 s⁻¹
- kon [1]: 120000 M⁻¹ s⁻¹
- rhCD30 Binding (RU) [1]: 60.8 RU
- binding result [2]: binds
B3: AS48542 sdAb (VHH)
VHH: QMQLVESGGGSVQAGETLRLSCTTSAFTFDGPDMAWYRQAPGNECVLVSIISADGRTYYADSVKGRFTISRDNAKNTVFLNLNSLQPEDTAVYYCALDPRKNCRGGYCCANWGPGTQVTVSS
notes: Camel sdAb

- binding result (rhesus CD30 ECD): binds
- Kd [1]: 31 nM
- koff [1]: 0.0061 s⁻¹
- kon [1]: 200000 M⁻¹ s⁻¹
- rhCD30 Binding (RU) [1]: 69.8 RU
- binding result [2]: binds
B4: AS48508 sdAb (VHH)
VHH: EVQLVESGGGSVQAGGSLRLSCTASRFTFDGPDMAWYRQAPGNACELVSIISADGRTYYTDSVKGRFTISRDNAKNTVFLYLNSLQPEDTAVYYCAPDPRRNCRGGYCCGNWGPGTQVTVSS
notes: Camel sdAb

- binding result (rhesus CD30 ECD): binds
- Kd [1]: 130 nM
- koff [1]: 0.0069 s⁻¹
- kon [1]: 56000 M⁻¹ s⁻¹
- rhCD30 Binding (RU) [1]: 284 RU
- binding result [2]: binds
B5: AS53750 sdAb (VHH)
VHH: B4 VHH with S11L, A14P, R26G, F29D, Q39R, A44E, Y107D
notes: Camel sdAb

- binding result (rhesus CD30 ECD): binds
- Kd [1]: 76 nM
- koff [1]: 0.0046 s⁻¹
- kon [1]: 61000 M⁻¹ s⁻¹
- rhCD30 Binding (RU) [1]: 59.2 RU
- binding result [2]: binds
B6: AS54233 sdAb (VHH)
VHH: QVQLVESGGGSVQAGETLRLSCTASGFTFDGPDMAWYRQAPGNECELVSIISADGRTYYTDSVKGRFTASQDNAKNTVSLYLKSLQPEDTAVYYCAADPRRNCRGNCCGNWGPGTQVTVSS
notes: Camel sdAb

- binding result (rhesus CD30 ECD): binds
- Kd [1]: 30 nM
- koff [1]: 0.01 s⁻¹
- kon [1]: 340000 M⁻¹ s⁻¹
- rhCD30 Binding (RU) [1]: 106 RU
- binding result [2]: binds
B7: AS48463 sdAb (VHH)
VHH: QVHLMESGGGSVQAGETLRLSCTASGFTFANSDMGWYRQAPGNACELVSIISSHGGTTYYVDSVKGRFTISRHNAENTVYLRMTSLKPEDTALYYCVADPRSNCRGGYCCGYWGPGTQVTVSS
notes: Camel sdAb
